B1: ePGDM9 (antibody, V domains shown)
VH: QAQLVQSGPEVRKPGTSVKVSCKNPGNTLTTYDLHWVRQVPGQGLQWMGWISHEGDKKVIVERFKAKVTIDWDRSTNTAYLQLSGLTSEDTAVYYCAKGSKHRLRDYALYDEDGALNWAVDVDYLANLEFWGQGTAVTVSS
VL: DIVLTQSPLSLSVTPGESASISCKSSQSLIHGDRNNYLAWYVQKPGRSPQLLIDLASERASGVPDRFSGSGSRKDFTLKISRVETEDVGTYYCMQGRESPWTFGQGTKVDIK
B2: ePGDM5 (antibody, V domains shown)
VH: QAQLVQSGPEVRKPGTSVKVSCKNPGNTLTTYDLHWVRQVPGQGLQWMGWISHEGDKKVIVERFKAKVTIDWDRSTNTAYLQLSGLTSEDTAVYYCAKGSKHRLRDYALYDEDGALNWAVDVDYLANLEFWGQGTAVTVSS
VL: DFVLTQSPLSLSVTPGESASISCKSDHSLQHGDRNNYLAWYVQKPGRSPQLLIDLASERASGVPDRFSGSGSRKDFTLKIDRVEAEDVGTYYCMQGRESPWTFGQGTKVDIK
B3: PGDM1400 (antibody, V domains shown)
VH: QVHLTQSGPEVRKPGTSVKVSCKAPGNTLKTYDLHWVRSVPGQGLQWMGWISHEGDKKVIVERFKAKVTIDWDRSTNTAYLQLSGLTSGDTAVYYCAKGSKHRLRDYALYDDDGALNWAVDVDYLSNLEFWGQGTAVTVSS
VL: DFVLTQSPHSLSVTPGESASISCKSSHSLIHGDRNNYLAWYVQKPGRSPQLLIYLASSRASGVPDRFSGSGSDKDFTLKISRVETEDVGTYYCMQGRESPWTFGQGTKVDIK
B4: ePGDM13 (antibody, V domains shown)
VH: QAQLVQSGPEVRKPGTSVKVSCKNPGNTLTTYDLHWVRQVPGQGLQWMGWISHEGDKKVIVERFKAKVTIDWDRSTNTAYLQLSGLTSEDTAVYYCAKGSKHRLRDYALYDEDGALNWAVDVDYLANLEFWGQGTAVTVSS
VL: DIVLTQSPLSLSVTPGESASISCKSSHSLQHGDRNNYLAWYVQKPGRSPQLLLDLASERASGVPDRFSGSGSEKDFTLKISRVETEDVGTYYCMQGRESPWTFGQGTKVDIK

How the values were obtained:
Experiment in all cases: cell-based or functional assay
[1] = molecular target: HIV Env, isolate 1054_07_TC4_1499 (HIV)
[2] = molecular target: HIV Env, isolate AC10.0.29 (HIV)
[3] = molecular target: HIV Env, isolate TRJO4551.58 (HIV)
[4] = molecular target: HIV Env, isolate WITO4160.33 (HIV)
[5] = molecular target: HIV Env, isolate CNE19 (HIV)
[6] = molecular target: HIV Env, isolate CNE53 (HIV)
[7] = molecular target: HIV Env, isolate 246FC1G (HIV)
[8] = molecular target: HIV Env, isolate BF1266.431a (HIV)
[9] = molecular target: HIV Env, isolate CAP210.2.00.E8 (HIV)
[10] = molecular target: HIV Env, isolate Ce1176_A3 (HIV)
[11] = molecular target: HIV Env, isolate Ce703010054_2A2 (HIV)
[12] = molecular target: HIV Env, isolate HIV-16845-2.22 (HIV)
[13] = molecular target: HIV Env, isolate 6480.v4.c25 (HIV)
[14] = molecular target: HIV Env, isolate 231965.c01 (HIV)
[15] = molecular target: HIV Env, isolate 3016.v5.c45 (HIV)
[16] = molecular target: HIV Env, isolate X1254_C3 (HIV)

| Binder | IC80 (µg/ml) with constrains [1] [µg/mL] | IC80 (µg/ml) with constrains [2] [µg/mL] | IC80 (µg/ml) with constrains [3] [µg/mL] | IC80 (µg/ml) with constrains [4] [µg/mL] | IC80 (µg/ml) with constrains [5] [µg/mL] | IC80 (µg/ml) with constrains [6] [µg/mL] | IC80 (µg/ml) with constrains [7] [µg/mL] | IC80 (µg/ml) with constrains [8] [µg/mL] | IC80 (µg/ml) with constrains [9] [µg/mL] | IC80 (µg/ml) with constrains [10] [µg/mL] | IC80 (µg/ml) with constrains [11] [µg/mL] | IC80 (µg/ml) with constrains [12] [µg/mL] | IC80 (µg/ml) with constrains [13] [µg/mL] | IC80 (µg/ml) with constrains [14] [µg/mL] | IC80 (µg/ml) with constrains [15] [µg/mL] | IC80 (µg/ml) with constrains [16] [µg/mL] |
| --- | --- | --- | --- | --- | --- | --- | --- | --- | --- | --- | --- | --- | --- | --- | --- | --- |
| B1 | > 100 | 0.298 | > 100 | 0.009 | 0.012 | 0.029 | > 100 | 0.008 | 0.221 | 0.089 | 0.032 | > 100 | > 100 | 0.037 | > 100 | 0.71 |
| B2 | > 100 | 1.1 | > 100 | 0.015 | 0.012 | 0.081 | > 100 | 0.014 | 0.226 | 0.088 | 0.034 | > 100 | > 100 | 0.035 | > 100 | 0.869 |
| B3 | > 100 | 2.19 | > 100 | 0.013 | 0.019 | 0.105 | > 100 | 0.024 | 1.32 | 2.1 | 0.057 | > 100 | > 100 | 0.242 | > 100 | > 100 |
| B4 | > 100 | 0.776 | > 100 | 0.013 | 0.013 | 0.059 | > 100 | 0.016 | 0.538 | 0.124 | 0.031 | > 100 | > 100 | 0.058 | > 100 | 2.07 |

From US20230134571A1 (INTERNATIONAL AIDS VACCINE INITIATIVE, published 2023)
